Residue numbers refer to the chain shown, from its start. Names may count otherwise.

Here are results for 18 molecules from US20140105889A1 (published 2014).

The chains are these.
T1: human FcγRIIa(R) (human, UniProt P12318 36-217)
T1 construct: Analyte in solution on Biacore; also called FcγRIIa type R; FcgRIIaR
T1 chain: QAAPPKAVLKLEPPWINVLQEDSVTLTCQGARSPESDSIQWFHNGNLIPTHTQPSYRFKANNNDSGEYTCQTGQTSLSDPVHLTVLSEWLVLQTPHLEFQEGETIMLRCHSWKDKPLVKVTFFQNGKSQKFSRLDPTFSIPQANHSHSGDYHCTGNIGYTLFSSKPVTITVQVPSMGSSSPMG

T2: human FcγRIIa type H (human, UniProt P12318 36-217)
T2 construct: also called FcgRIIaH; FcγRIIa(H)
T2 sequence: T1 chain with R133H

T3: human FcγRIIb (human, UniProt P31994 43-217, limits assumed)
T3 construct: also called FcgRIIb; FcγIIB
T3 sequence: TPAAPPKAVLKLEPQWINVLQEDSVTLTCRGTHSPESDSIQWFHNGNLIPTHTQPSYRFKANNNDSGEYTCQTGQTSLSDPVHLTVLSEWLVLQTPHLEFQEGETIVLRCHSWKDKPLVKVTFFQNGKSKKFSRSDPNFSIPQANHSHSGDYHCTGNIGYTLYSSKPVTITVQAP

T4: human FcγRIIb (human, UniProt P31994 43-217)
T4 construct: also called FcγIIB
T4 sequence: T3 sequence

B1: IL6R-BP190/IL6R-L (antibody, human IgG1)
heavy: QVQLQESGPGLVKPSETLSLTCAVSGHSISHDHAWSWVRQPPGEGLEWIGFISYSGITNYNPSLQGRVTISRDNSKNTLYLQMNSLRAEDTAVYYCARSLARTTAMDYWGEGTLVTVSSASTKGPSVFPLAPSSKSTSGGTAALGCLVKDYFPEPVTVSWNSGALTSGVHTFPAVLQSSGLYSLSSVVTVPSSSLGTQTYICNVNHKPSNTKVDKKVEPKSCDKTHTCPPCPAPELLGDDSVFLFPPKPKDTLMISRTPEVTCVVVDVSDEDGEVKFNWYVDGVEVHNAKTKPREEQYNSTYRVVSVLTVLHQDWLNGKEYKCKVSNKALPKPIEKTISKAKGQPREPQVYTLPPSRDELTKNQVSLTCLVKGFYPSDIAVEWESNGQPENNYKTTPPVLDSDGSFFLYSKLTVDKSRWQQGNVFSCSVMHEALHNHYTQESLSLSP
light: DIQMTQSPSSLSASVGDRVTITCRASQDISSYLNWYQQKPGKAPKLLIYYTSRLHSGVPSRFSGSGSGTDFTFTISSLQPEDIATYYCQQGNTLPYTFGQGTKVEIK
notes: Anti-human IL-6 receptor human IgG1 variant; copies: 2 + 2
B2: IL6R-BP186/IL6R-L (antibody, human IgG1)
heavy: B1 heavy with E235D, L236Y, D270H, Y298D, K328A
light: B1 light
notes: as for B1
B3: IL6R-BP183/IL6R-L (antibody, human IgG1)
heavy: B1 heavy with E235D, L236Y, D239G, D270H, K328A
light: B1 light
notes: as for B1
B4: IL6R-BP199/IL6R-L (antibody, human IgG1)
heavy: B1 heavy with E235D, D239G, D270H, G273P, K328D, K332R
light: B1 light
notes: Anti-human IL-6 receptor human IgG1 variant; uncertain; copies: 2 + 2
B5: IL6R-BP197/IL6R-L (antibody, human IgG1)
heavy: B1 heavy with E235D, L236Y, Y298D, K328D
light: B1 light
notes: as for B1
B6: IL6R-BP188/IL6R-L (antibody, human IgG1)
heavy: B1 heavy with E235D
light: B1 light
notes: as for B1
B7: IL6R-BP195/IL6R-L (antibody, human IgG1)
heavy: B1 heavy with E235D, L236Y, Y298D, K328A
light: B1 light
notes: as for B1
B8: IL6R-BP187/IL6R-L (antibody, human IgG1)
heavy: B1 heavy with L236Y, D239G, D270H, K328A
light: B1 light
notes: as for B1
B9: IL6R-BP191/IL6R-L (antibody, human IgG1)
heavy: B1 heavy with E235D, D239G, K328A
light: B1 light
notes: as for B1
B10: IL6R-BP196/IL6R-L (antibody, human IgG1)
heavy: B1 heavy with L236Y, D239G, K328A
light: B1 light
notes: as for B1
B11: IL6R-BP198/IL6R-L (antibody, human IgG1)
heavy: B1 heavy with E235D, L236Y, D239G, K328A
light: B1 light
notes: as for B1
B12: GpH7-B3 variant P331G / GpL16-k0 (antibody, human IgG1)
heavy: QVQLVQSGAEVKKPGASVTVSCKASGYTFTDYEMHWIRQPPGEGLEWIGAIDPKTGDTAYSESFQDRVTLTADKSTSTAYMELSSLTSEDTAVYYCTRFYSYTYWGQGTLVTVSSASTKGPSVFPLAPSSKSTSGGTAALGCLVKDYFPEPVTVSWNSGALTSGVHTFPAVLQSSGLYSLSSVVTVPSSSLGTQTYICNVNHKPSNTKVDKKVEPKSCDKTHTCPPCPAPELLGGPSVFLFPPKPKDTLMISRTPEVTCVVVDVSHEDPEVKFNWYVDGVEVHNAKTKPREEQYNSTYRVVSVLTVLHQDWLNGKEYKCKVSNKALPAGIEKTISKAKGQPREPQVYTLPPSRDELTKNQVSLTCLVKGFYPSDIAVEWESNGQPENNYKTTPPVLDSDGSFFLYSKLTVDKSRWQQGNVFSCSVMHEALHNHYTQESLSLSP
light: DIVMTQSPLSLPVTPGEPASISCQASESLVHSNRNTYLHWYLQKPGQSPQLLIYKVSNRFSGVPDRFSGSGSGTDFTLKISRVEAEDVGVYYCSQNTHVPPTFGQGTKVEIE
notes: Anti-glypican-3 IgG1; constant region B3 = G1d with K439E
B13: IL6R-BP203/IL6R-L (antibody, human IgG1)
heavy: B1 heavy with D270H, K332R
light: B1 light
notes: The common L chain is IL6R-L; copies: 2 + 2
B14: IL6R-BP208/IL6R-L (antibody, human IgG1)
heavy: B1 heavy with E235D, K332R
light: B1 light
notes: as for B13
B15: IL6R-BP212/IL6R-L (antibody, human IgG1)
heavy: B1 heavy with E235D, D239G, Y298D, K332R
light: B1 light
notes: as for B13
B16: IL6R-BP209/IL6R-L (antibody, human IgG1)
heavy: B1 heavy with K328A, K332R
light: B1 light
notes: as for B13
B17: IL6R-BP206/IL6R-L (antibody, human IgG1)
heavy: B1 heavy with E235D, D239G, D270H, K332R
light: B1 light
notes: as for B13
B18: IL6R-BP207/IL6R-L (antibody, human IgG1)
heavy: B1 heavy with E235D, D239G, D270H, G273P, K332R
light: B1 light
notes: as for B13

In one experiment the target is T5, human FcγRIIIa type V (allotype V158) (human, UniProt P08637 17-208, limits assumed).
T5 construct: the assay used allotype V158; also called FcγRIIIaV; FcγRIIIa(V)
T5 sequence (P08637 other isoform, or with tags, fused parts or gaps limits assumed): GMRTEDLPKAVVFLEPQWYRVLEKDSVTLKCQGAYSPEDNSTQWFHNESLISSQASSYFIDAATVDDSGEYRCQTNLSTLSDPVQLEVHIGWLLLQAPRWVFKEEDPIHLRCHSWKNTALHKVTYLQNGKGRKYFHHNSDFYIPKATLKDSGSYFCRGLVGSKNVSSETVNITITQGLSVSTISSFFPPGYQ
The experiment is described as follows: SPR (Biacore), antibody captured on the chip, FcγR as analyte. Background: Surface plasmon resonance follows binding to a sensor surface in real time, without labels.
B1 registered a Kd of 45 µM.
With B2, the Kd is 49 µM.
The same measure, in the same setting: under B3 stands 56 µM; under B4, 61 µM.
The same measure, in the same setting: under B5 stands 33 µM; under B6, 68 µM; under B7, 31 µM.
The same measure, in the same setting: under B8 stands 56 µM; under B9, 49 µM; under B10, 51 µM.
In the case of B11, the Kd is 44 µM.

The next experiment has as its target T6, human FcγRIa (human, UniProt P12314 16-292, limits assumed).
T6 construct: Analyte in solution on Biacore; also called FcgRIa; hFcgRIa
Nature of the experiment: SPR (Biacore), antibody captured on chip, FcγR as analyte, HBS-EP+, 25°C.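 Further: FcγR binding response divided by the amount of captured antibody, then expressed relative to the reference antibody ×100, with antibodies captured via immobilized Protein A, A/G, L or antigen peptides.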
T6 sequence (P12314 16-292 limits assumed): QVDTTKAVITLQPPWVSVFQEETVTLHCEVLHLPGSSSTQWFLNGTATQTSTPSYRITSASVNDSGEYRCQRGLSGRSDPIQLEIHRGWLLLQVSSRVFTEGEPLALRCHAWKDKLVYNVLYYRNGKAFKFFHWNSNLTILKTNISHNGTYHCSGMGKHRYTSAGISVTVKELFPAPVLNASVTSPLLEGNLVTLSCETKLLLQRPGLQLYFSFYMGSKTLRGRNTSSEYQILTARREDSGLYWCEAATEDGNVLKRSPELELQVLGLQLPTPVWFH
Description: (§1) Interaction between each modified antibody and Fcγ receptor prepared in the manner described above was analyzed using the Biacore T100 (GE Healthcare), Biacore T200 (GE Healthcare), Biacore A100 or Biacore 4000. HBS-EP+ (GE Healthcare) was used for the running buffer, and measurements were carried out at 25° C. The chips used were chips in which antigen peptides, Protein A (Thermo Scientific), Protein A/G (Thermo Scientific) or Protein L (ACTIGEN or BioVision) were immobilized on the Series S Sensor Chip CM5 (GE Healthcare) or Series S Sensor Chip CM4 (GE Healthcare) by amine coupling, or chips in which preliminarily biotinylated antigen peptides were allowed to interact and then immobilized on the Series S Sensor Chip SA (certified) (GE Healthcare). The target antibodies were captured on these sensor chips, Fcγ receptor diluted with the running buffer was allowed to interact, followed by measurement of the amount of bound antibody. The amounts bound were compared between antibodies. However, since the amount of Fcγ receptor bound depends on the amount of captured antibody, the values used for comparison were first corrected by dividing the amount of Fcγ receptor bound by the captured amount of each antibody. Through reaction with 10 mM glycine-HCl at pH 1.5, the sensor chips were regenerated by washing off antibody captured on the sensor chips and used repeatedly.
(§2) Binding strength was evaluated according to the following method based on the results of analyzing the interaction with each FcγR. […] That value was then further multiplied by 100, and the resulting value was used as an indicator of relative binding activity to each FcγR.
As for B12, the “relative binding activity (% of GpH7-B3/GpL16-k0)” value worked out at 88%.

The next experiment concerns the target T1, human FcγRIIa(R). The description is as above.
Description: as §1, §2
On to B12, for which the “relative binding activity (% of GpH7-B3/GpL16-k0)” value turned out to be 13%.

Another experiment deals with T7, human FcγRIa (human, UniProt P12314 16-292, limits assumed).
T7 construct: also called FcgRIa; CD64
Nature of the experiment: SPR (Biacore); binding amount divided by that of control IL6R-BF648/IL6R-L, x100.
T7 sequence (P12314 16-292 limits assumed): as above
Description: (§3) According to the following method, relative binding activities were calculated for the results of analyzing interactions with the respective FcγRs.
As for B13, the relative binding activity was 35 % of IL6R-BF648/IL6R-L.
On the same count and under the same terms, the result for B14 reads 81 % of IL6R-BF648/IL6R-L; that for B15, 117 % of IL6R-BF648/IL6R-L; that for B16, 68 % of IL6R-BF648/IL6R-L.
The same measure, in the same setting: the result for B17 reads 101 % of IL6R-BF648/IL6R-L.
Still for that read-out and setting: under B18 stands 74 % of IL6R-BF648/IL6R-L.

Another experiment addresses T2, human FcγRIIa type H. The description is as above.
Description: as §3
In the case of B13, the relative binding activity was 255 % of IL6R-BF648/IL6R-L.
On the same count and under the same terms, the result for B14 reads 310 % of IL6R-BF648/IL6R-L.
Regarding B15, the relative binding activity was 135 % of IL6R-BF648/IL6R-L.
The same measure, in the same setting: under B16 stands 267 % of IL6R-BF648/IL6R-L.
Same read-out and setting: the result for B17 reads 123 % of IL6R-BF648/IL6R-L; that for B18, 103 % of IL6R-BF648/IL6R-L.

The next experiment deals with T3, human FcγRIIb. The description is as above.
Description: as §3
As for B13, the relative binding activity was 185 % of IL6R-BF648/IL6R-L.
The same measure, in the same setting: under B14 stands 188 % of IL6R-BF648/IL6R-L; under B15, 173 % of IL6R-BF648/IL6R-L; under B16, 186 % of IL6R-BF648/IL6R-L.
Same read-out and setting: under B17 stands 168 % of IL6R-BF648/IL6R-L.
Same read-out and setting: the result for B18 reads 124 % of IL6R-BF648/IL6R-L.

The target of the next experiment is T8, human FcγRIIIa type V (human, UniProt P08637 17-208, limits assumed).
T8 construct: The assay used allotype V158; also called FcgRIIIaV; FcγRIIIa(V)
T8 sequence (P08637 other isoform, or with tags, fused parts or gaps limits assumed): as the sequence (P08637 other isoform, or with tags, fused parts or gaps limits assumed) above
Described as above.
Description: as §3
With B13, the relative binding activity is 88 % of IL6R-BF648/IL6R-L.
Same read-out and setting: under B14 stands 118 % of IL6R-BF648/IL6R-L.
Regarding B15, the relative binding activity was 122 % of IL6R-BF648/IL6R-L.
On to B16, for which the relative binding activity was 153 % of IL6R-BF648/IL6R-L.
The same measure, in the same setting: the result for B17 reads 92 % of IL6R-BF648/IL6R-L; that for B18, 97 % of IL6R-BF648/IL6R-L.

The next experiment has as its target T4, human FcγRIIb. Nature of the experiment: SPR (Biacore); KD of parent IL6R-B3/IL6R-L for FcγRIIb divided by KD of the variant for FcγRIIb.
Excerpt: Furthermore, KD(IIaR)/KD(IIb) and KD(IIaH)/KD(IIb) in the table respectively represent the value obtained by dividing the KD value of each variant for FcγRIIaR by the KD value of each variant for FcγRIIb, and the value obtained by dividing the KD value of each variant for FcγRIIaH by the KD value of each variant for FcγRIIb.
With B1, the “KD(IIb) of the parent polypeptide/KD(IIb) of the altered polypeptide” value (“KD(IIb)” below) is 53.2.
In the case of B2, the “KD(IIb)” value came to 50.7.
The same measure, in the same setting: under B3 stands 12.9.
Same read-out and setting: under B4 stands 6.3.
Still for that read-out and setting: the result for B5 reads 53.7; that for B6, 87.6.
Turning to B7, the “KD(IIb)” value was determined as 82.
As to B8, the “KD(IIb)” value was 1.7.
The same measure, in the same setting: under B9 stands 21.2; under B10, 13.9.
Still for that read-out and setting: the result for B11 reads 15.7.

By Kd is commonly meant a measure of binding affinity in units of concentration. A high value points to lower affinity.
